{"source": "patent US20240207432A1", "about": "(BIOSION, published 2024)", "key": {"human TROP2-his protein [1]": {"biological_target": "T1, human TROP2-his protein (human, UniProt P09758 27-274)", "T1 construct": "Biotin-labelled in the ELISAs, unlabelled analyte in Biacore; also called biotin-labeled human TROP2-his protein; biotin human Trop2-his", "T1 sequence": "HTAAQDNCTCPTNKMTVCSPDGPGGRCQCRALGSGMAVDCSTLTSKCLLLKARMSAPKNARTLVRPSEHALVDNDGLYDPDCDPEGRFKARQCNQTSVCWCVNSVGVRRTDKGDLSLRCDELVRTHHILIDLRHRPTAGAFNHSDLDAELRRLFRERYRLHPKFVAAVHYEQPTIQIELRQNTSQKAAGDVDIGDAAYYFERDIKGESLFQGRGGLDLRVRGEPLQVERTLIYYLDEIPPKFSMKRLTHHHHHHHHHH", "assay": "competitive ELISA: mouse A1E4F7D4 coated at 2 ug/mL, antibody premixed with biotin human TROP2-his; blocked: binding of TROP2-his to coated A1E4F7D4 (self-competition)", "method": "(§1) The mouse anti-TROP2 antibodies were tested for epitope binding in a competitive ELISA assay. […] ELISA plates were washed once with wash buffer (PBS+0.05% v/v Tween-20, PBST) and then blocked with 200 μl blocking buffer (5% w/v non-fatty milk in PBST) for 2 hours at 37° C. While blocking, the anti-TROP2 antibodies or controls were diluted with biotin labeled human TROP2-his protein (SEQ ID NO: 67, 34 ng/mL in 2.5% wA non-fatty milk in PBST), starting at 80 nM with a 5-fold serial dilution, and incubated at room temperature for 40 minutes. After plate washing for 4 times, the antibody/TROP2-his protein mixtures were added to the antibody coated plates, 100 μl per well. After incubation at 37° C. for 40 minutes, plates were washed 4 times again using wash buffer. Then the plates were added and incubated with 100 μl Peroxidase Streptavidin (1:10000 dilution in PBST buffer. Jackson Immunoresearch, Cat #016-030-084) for 40 minutes at 37° C. Plates were washed again using wash buffer. Finally, TMB was added and the reaction was stopped using 1M H₂SO₄. The absorbance of each well was read on a microplate reader using dual wavelength mode with 450 nm for TMB and 630 nm as the reference wavelength, and the OD (450-630) values were plotted against antibody concentration. Data was analyzed using Graphpad Prism software and IC₅₀ values were reported."}, "human TROP2-his protein [2]": {"biological_target": "T1, human TROP2-his protein", "assay": "competitive ELISA: mouse A1E11A12D1 coated at 2 ug/mL, antibody premixed with biotin human TROP2-his; blocked: binding of TROP2-his to coated A1E11A12D1 (self-competition)", "method": "as §1"}, "[3]": {"biological_target": "T2, cynomolgus TROP2-his protein (cynomolgus monkey, UniProt P09758 27-272 (human entry), limits assumed)", "T2 construct": "no cleavage site is stated; also called Cynomolgus monkey TROP2-his protein; monkey TROP2", "T2 chain": "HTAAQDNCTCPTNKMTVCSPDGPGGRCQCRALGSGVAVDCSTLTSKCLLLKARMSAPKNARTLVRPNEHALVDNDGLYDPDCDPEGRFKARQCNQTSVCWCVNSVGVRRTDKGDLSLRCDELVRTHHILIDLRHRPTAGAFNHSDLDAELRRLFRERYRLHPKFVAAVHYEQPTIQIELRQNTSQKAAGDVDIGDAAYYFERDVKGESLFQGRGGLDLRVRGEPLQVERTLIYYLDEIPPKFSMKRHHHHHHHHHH", "assay": "indirect ELISA, cynomolgus TROP2-his coated, OD(450-630)", "method": "The anti-TROP2 antibodies of the disclosure were tested for their cross-reaction with cynomolgus TROP2 proteins. Briefly, 96-well micro plates were coated with 100 μl 2 μg/ml cynomolgus TROP2-his proteins (prepared in-house with SEQ ID NO: 70) in carbonate/bicarbonate buffer (pH 9.6) overnight at 4° C. ELISA plates were washed once with wash buffer (PBS+0.05% v/v Tween-20, PBST) and then blocked with 200 μl/well blocking buffer (5% w/v non-fatty milk in PBST) for 2 hours at 37° C. […] After a final wash, plates were incubated with 100 μl/well TMB (Innoreagents) at room temperature. The reaction was stopped 3-10 minutes later at room temperature with 50 μl/well 1M H₂SO₄, and the absorbance of each well was read on a microplate reader using dual wavelength mode with 450 nm for TMB and 630 nm as the reference wavelength. The OD (450-630) values were plotted against antibody concentration. Data was analyzed using Graphpad Prism software and EC₅₀ values were reported."}, "human TROP2-his protein [4]": {"biological_target": "T1, human TROP2-his protein", "assay": "competitive ELISA: BM1 coated at 1 ug/mL, antibody premixed with biotin human TROP2-his; blocked: binding of TROP2-his to coated BM1 (self-competition)", "method": "as §1"}}, "data": [{"binder": "mouse antibody A1E4F7D4 (antibody, V domains shown, Mouse monoclonal IgG purified from hybridoma supernatant; also called Mouse A1E4F7D4) VH: QVQLQQSGAELAKPGTSVKMSCEASGYSFTTHWIHWMKQRPGQGLEWIGTIFPSNAYAVYNQKFRDRAIMTADRSSTTAYIQLTGLTSEDSAVYYCARASYFDYWGQGTTLTVSS VL: DILLTQSPATLSVSPGERVTFSCRASQNIGTSIHWFQQRTTGSPRLLIKYASESISGIPSRFSGSGSGTDFTLHINSVESEDIAHYYCQHSHSWPFTFGSGTKLEIQ", "values": [{"measurement": "IC50", "setting": "human TROP2-his protein [1]", "result": 0.0675, "unit": "nM"}]}, {"binder": "mouse antibody A1E11A12D1 (antibody, V domains shown, Mouse monoclonal IgG purified from hybridoma supernatant) VH: QVQLQQSGAELARPGASVKLSCMASGYTFTTYGISWVRQRTGQGLEWIGQIYPGSDYSYCDEDFKGKATLTADKSSSTAYMQLSSLTSEDSAVYFCARASYFDYWGQGTTLTVSS VL: DILLTQSPAILSVSPGERVSFSCRASQTIGTAIHWYQQRANGSPRLLIKYASESISGIPSRFSGSGSGTDFALSINTVESEDFAYYYCQQSNNWPFTFGGGTKLEIR", "values": [{"measurement": "IC50", "setting": "human TROP2-his protein [2]", "result": 1, "unit": "nM"}]}, {"binder": "benchmark (in house prepared sacituzumab) (antibody, human IgG1, kappa, V domains shown, also called BM; BM1) VH: SVQLQQSGSELKKPGASVKVSCKASGYTFTNYGMNWVKQAPGQGLKWMGWINTYTGEPTYTDDFKGRFAFSLDTSVSTAYLQISSLKADDTAVYFCARGGFGSSYWYFDVWGQGSLVTVSS VL: DIQLTQSPSSLSASVGDRVSITCKASQDVSIAVAWYQQKPGKAPKLLIYSASYRYTGVPDRFSGSGSGTDFTLTISSLQPEDFAVYYCQQHYITPLTFGAGTKVEIKR", "values": [{"measurement": "EC50", "setting": "[3]", "result": 0.138, "unit": "nM"}, {"measurement": "IC50", "setting": "human TROP2-his protein [4]", "result": 0.632, "unit": "nM"}]}]}
